Laboratory results taken from patent publication US10487116B2, “Immunotherapy against several tumors, such as lung cancer, including NSCLC” (IMMATICS BIOTECHNOLOGIES GMBH, priority 2013, dated 2019).

Biological target: HLA-A*0201 (Homo sapiens, UniProt P04439, D140Y/D185E/D98H/E176V/E277Q/G131W/G231S/I119V/I121R/I166T/I218V/L300P/L318F/N151K/N90K/P208A/P217A/Q86G/Q94H/R138H/R169H/T345S)
Assay: UV-ligand exchange with ELISA of stabilized MHC complexes
Type: binding
Conditions: ELISA detecting β2m of stabilized MHC complexes
Source text: Candidate peptides for the vaccines according to the present invention were further tested for immunogenicity by in vitro priming assays. The individual peptide-MHC complexes required for these assays were produced by UV-ligand exchange, where a UV-sensitive peptide is cleaved upon UV-irradiation, and exchanged with the peptide of interest as analyzed. Only peptide candidates that can effectively bind and stabilize the peptide-receptive MHC molecules prevent dissociation of the MHC complexes. To determine the yield of the exchange reaction, an ELISA was performed based on the detection of the light chain (β2m) of stabilized MHC complexes. The assay was performed as generally described in Rodenko et al. (Rodenko B, Toebes M, Hadrup S R, van Esch W J, Molenaar A M, Schumacher T N, Ovaa H. Generation of peptide-MHC class I complexes through UV-mediated ligand exchange. Nat Protoc. 2006; 1(3):1120-32.).
96 well MAXISorp plates (NUNC) were coated over night with 2 ug/ml streptavidin in PBS at room temperature, washed 4× and blocked for 30 min at 37° C. in 2% BSA containing blocking buffer. Refolded HLA-A*0201/MLA-001 monomers served as standards, covering the range of 8-500 ng/ml. Peptide-MHC monomers of the UV-exchange reaction were diluted 100 fold in blocking buffer. Samples were incubated for 1 h at 37° C., washed four times, incubated with 2 ug/ml HRP conjugated anti-β2m for 1 h at 37° C., washed again and detected with TMB solution that is stopped with […]. Absorption was measured at 450 nm.

Row | Substance | Average exchange yield in % [%]
1 | RLLJAAENFL (RLLAAENFL; listed as Homo sapiens) [SEQ ID NO 49] | 47

Same assay, conditions: class symbol

Row | Substance | Exchange yield
2 | ALASVIKEL (listed as Homo sapiens) [SEQ ID NO 89] | +++ (50%-70%, +++)
3 | ALDENLHQL (listed as Homo sapiens) [SEQ ID NO 3] | ++ (20%-49% = ++)
4 | ALFPHLLQPV (listed as Homo sapiens) [SEQ ID NO 43] | +++ (50%-70%, +++)
5 | ALLRTVVSV (listed as Homo sapiens) [SEQ ID NO 33] | ++++ (>70 = ++++)
6 | ALMDKEGLTAL (listed as Homo sapiens) [SEQ ID NO 9] | ++++ (>70 = ++++)
7 | ALVDHTPYL (listed as Homo sapiens) [SEQ ID NO 20] | ++ (20%-49% = ++)
8 | ALWEKNTHL (listed as Homo sapiens) [SEQ ID NO 82] | +++ (50%-70%, +++)
9 | ALYDSVILL (listed as Homo sapiens) [SEQ ID NO 75] | ++ (20%-49% = ++)
10 | ALYGRLEVV (listed as Homo sapiens) [SEQ ID NO 81] | ++++ (>70 = ++++)
11 | AMATESILHFA (listed as Homo sapiens) [SEQ ID NO 86] | +++ (50%-70%, +++)
12 | AMFENFVSV (listed as Homo sapiens) [SEQ ID NO 91] | +++ (50%-70%, +++)
13 | AMLAVLHTV (listed as Homo sapiens) [SEQ ID NO 64] | ++ (20%-49% = ++)
14 | AMSSKFFLV (listed as Homo sapiens) [SEQ ID NO 69] | ++ (20%-49% = ++)
15 | AVVEFLTSV (listed as Homo sapiens) [SEQ ID NO 19] | +++ (50%-70%, +++)
16 | FLHHLEIEL (listed as Homo sapiens) [SEQ ID NO 23] | +++ (50%-70%, +++)
17 | FLIPIYHQV (listed as Homo sapiens) [SEQ ID NO 22] | +++ (50%-70%, +++)
18 | FLLDGSANV (listed as Homo sapiens) [SEQ ID NO 73] | ++++ (>70 = ++++)
19 | FLVDGSWSV (listed as Homo sapiens) [SEQ ID NO 24] | +++ (50%-70%, +++)
20 | FQYDHEAFL (listed as Homo sapiens) [SEQ ID NO 14] | ++++ (>70 = ++++)
21 | GLAEDIDKGEV (listed as Homo sapiens) [SEQ ID NO 57] | ++ (20%-49% = ++)
22 | GLIEIISNA (listed as Homo sapiens) [SEQ ID NO 48] | +++ (50%-70%, +++)
23 | GLTDNIHLV (listed as Homo sapiens) [SEQ ID NO 40] | +++ (50%-70%, +++)
24 | GLYPDAFAPV (listed as Homo sapiens) [SEQ ID NO 25] | +++ (50%-70%, +++)
25 | GVLENIFGV (listed as Homo sapiens) [SEQ ID NO 47] | ++++ (>70 = ++++)
26 | HLLEDIAHV (listed as Homo sapiens) [SEQ ID NO 92] | ++ (20%-49% = ++)
27 | ILFEINPKL (listed as Homo sapiens) [SEQ ID NO 1] | ++++ (>70 = ++++)

Row | Substance | Exchange yield
28 | ILFPDIIARA (listed as Homo sapiens) [SEQ ID NO 62] | ++++ (>70 = ++++)
29 | ILMGTELTQV (listed as Homo sapiens) [SEQ ID NO 84] | ++ (20%-49% = ++)
30 | ILQDRLNQV (listed as Homo sapiens) [SEQ ID NO 67] | ++ (20%-49% = ++)
31 | ILVSWLPRL (listed as Homo sapiens) [SEQ ID NO 59] | ++++ (>70 = ++++)
32 | KILEDVVGV (listed as Homo sapiens) [SEQ ID NO 70] | +++ (50%-70%, +++)
33 | KIQEILTQV (listed as Homo sapiens) [SEQ ID NO 66] | ++ (20%-49% = ++)
34 | KIQEMQHFL (listed as Homo sapiens) [SEQ ID NO 2] | +++ (50%-70%, +++)
35 | KIVDFSYSV (listed as Homo sapiens) [SEQ ID NO 85] | +++ (50%-70%, +++)
36 | KIYNEFISV (listed as Homo sapiens) [SEQ ID NO 30] | ++ (20%-49% = ++)
37 | KLAVALLAA (listed as Homo sapiens) [SEQ ID NO 15] | ++ (20%-49% = ++)
38 | KLDETNNTL (listed as Homo sapiens) [SEQ ID NO 6] | +++ (50%-70%, +++)
39 | KLFGEKTYL (listed as Homo sapiens) [SEQ ID NO 26] | ++ (20%-49% = ++)
40 | KLLEYIEEI (listed as Homo sapiens) [SEQ ID NO 71] | ++ (20%-49% = ++)
41 | KLLTEVHAA (listed as Homo sapiens) [SEQ ID NO 72] | +++ (50%-70%, +++)
42 | KLSWDLIYL (listed as Homo sapiens) [SEQ ID NO 32] | +++ (50%-70%, +++)
43 | KLVEFDFLGA (listed as Homo sapiens) [SEQ ID NO 54] | +++ (50%-70%, +++)
44 | KVLEILHRV (listed as Homo sapiens) [SEQ ID NO 65] | +++ (50%-70%, +++)
45 | NLIEKSIYL (listed as Homo sapiens) [SEQ ID NO 4] | ++ (20%-49% = ++)
46 | NLLAEIHGV (listed as Homo sapiens) [SEQ ID NO 44] | ++++ (>70 = ++++)
47 | RLLDSVSRL (listed as Homo sapiens) [SEQ ID NO 39] | +++ (50%-70%, +++)
48 | RLLGPSAAADILQL (listed as Homo sapiens) [SEQ ID NO 17] | ++ (20%-49% = ++)
49 | RLLJAAENFL (RLLAAENFL; listed as Homo sapiens) [SEQ ID NO 49] | ++ (20%-49% = ++)
50 | RVLPPSALQSV (listed as Homo sapiens) [SEQ ID NO 87] | +++ (50%-70%, +++)
51 | SILTIEDGIFEV (listed as Homo sapiens) [SEQ ID NO 41] | ++ (20%-49% = ++)
52 | SISDVIAQV (listed as Homo sapiens) [SEQ ID NO 28] | +++ (50%-70%, +++)
53 | SLAGDVALQQL (listed as Homo sapiens) [SEQ ID NO 63] | ++++ (>70 = ++++)

Row | Substance | Exchange yield
54 | SLAPAGVIRV (listed as Homo sapiens) [SEQ ID NO 79] | +++ (50%-70%, +++)
55 | SLFGNSGILENV (listed as Homo sapiens) [SEQ ID NO 80] | +++ (50%-70%, +++)
56 | SLHFLILYV (listed as Homo sapiens) [SEQ ID NO 38] | + (<20% = +)
57 | SLIDADPYL (listed as Homo sapiens) [SEQ ID NO 58] | +++ (50%-70%, +++)
58 | SLIEDLILL (listed as Homo sapiens) [SEQ ID NO 12] | ++ (20%-49% = ++)
59 | SLLAQNTSWLL (listed as Homo sapiens) [SEQ ID NO 74] | +++ (50%-70%, +++)
60 | SLLESNKDLLL (listed as Homo sapiens) [SEQ ID NO 88] | +++ (50%-70%, +++)
61 | SLLPVDIRQYL (listed as Homo sapiens) [SEQ ID NO 50] | +++ (50%-70%, +++)
62 | SLVAVELEKV (listed as Homo sapiens) [SEQ ID NO 90] | +++ (50%-70%, +++)
63 | SLWGGDVVL (listed as Homo sapiens) [SEQ ID NO 42] | +++ (50%-70%, +++)
64 | SLYDNQITTV (listed as Homo sapiens) [SEQ ID NO 78] | ++ (20%-49% = ++)
65 | SLYKGLLSV (listed as Homo sapiens) [SEQ ID NO 56] | ++ (20%-49% = ++)
66 | SMSGYDQVL (listed as Homo sapiens) [SEQ ID NO 8] | ++ (20%-49% = ++)
67 | TLISRLPAV (listed as Homo sapiens) [SEQ ID NO 61] | ++++ (>70 = ++++)
68 | TLSSIKVEV (listed as Homo sapiens) [SEQ ID NO 5] | +++ (50%-70%, +++)
69 | TLTNIIHNL (listed as Homo sapiens) [SEQ ID NO 46] | +++ (50%-70%, +++)
70 | TLWYRAPEV (listed as Homo sapiens) [SEQ ID NO 7] | ++ (20%-49% = ++)
71 | TLYPHTS (TLYPHTSQV; listed as Homo sapiens) [SEQ ID NO 18] | ++ (20%-49% = ++)
72 | TVAEVIQS V (TVAEVIQSV; listed as Homo sapiens) [SEQ ID NO 27] | +++ (50%-70%, +++)
73 | TVIGFLLPFA (listed as Homo sapiens) [SEQ ID NO 16] | ++++ (>70 = ++++)
74 | VLAPLFVYL (listed as Homo sapiens) [SEQ ID NO 37] | +++ (50%-70%, +++)
75 | VLFPNLKTV (listed as Homo sapiens) [SEQ ID NO 35] | ++ (20%-49% = ++)
76 | VLLPVEVATHYL (listed as Homo sapiens) [SEQ ID NO 11] | +++ (50%-70%, +++)
77 | VLSVVEVTL (listed as Homo sapiens) [SEQ ID NO 10] | ++++ (>70 = ++++)
